Measured values from paper PMC5548745, “Agonist-induced dimer dissociation as a macromolecular step in G protein-coupled receptor signaling” (Nature Communications, 2017).
Substitutions are numbered along the chain they refer to. In names and notes the source's numbering stands.

B1: FZD6 dimer control mutant: FZD6 with D365E, R368K, Y369F (protein)
chain: HSLFTCEPITVPRCMKMAYNMTFFPNLMGHYDQSIAAVEMEHFLPLANLECSPNIETFLCKAFVPTCIEQIHVVPPCRKLCEKVYSDCKKLIDTFGIRWPEELECDRLQYCDETVPVTFDPHTEFLGPQKKTEQVQRDIGFWCPRHLKTSGGQGYKFLGIDQCAPPCPNMYFKSDELEFAKSFIGTVSIFCLCATLFTFLTFLIDVRRFRYPERPIIYYSVCYSIVSLMYFIGFLLGDSTACNKADEKLELGDTVVLGSQNKACTVLFMLLYFFTMAGTVWWVILTITWFLAAGRKWSCEAIEQKAVWFHAVAWGTPGFLTVMLLAMNKVEGDNISGVCFVGLYDLEASKFFVLLPLCLCVFVGLSLLLAGIISLNHVRQVIQHDGRNQEKLKKFMIRIGVFSGLYLVPLVTLLGCYVYEQVNRITWEITWVSDHCRQYHIPCPYQAKAKARPELALFMIKYLMTLIVGISAVFWVGSKKTCTEWAGFFKRNRKRDPISESRRVLQESCEFFLKHNSKVKHKKKHYKPSSHKLKVISKSMGTSTGATANHGTSAVAITSHDYLGQETLTEIQTSPETSMREVKADGASTPRLREQDCGEPASPAASISRLSGEQVDGKGQAGSVSESARSEGRISPKSDITDTGLAQSNNLQVPSSSEPSSLKGSTSLLVHPVSGVRKEQGGGCHSDT
modifications: left off: GFP, C-terminal, kept
notes: FZD6 with D365E, R368K, Y369F
B2: FZD6 F337A mutant: FZD6 with F337A mutation on TM4 (protein)
chain: B1 chain with F319A, E347D, K350R, F351Y
B3: DVL2-MYC: overexpressed MYC-tagged DVL2 (protein, UniProt O14641 1-736, looked up)
Segment polarity protein …: MAGSSTGGGGVGETKVIYHLDEEETPYLVKIPVPAERITLGDFKSVLQRPAGAKYFFKSMDQDFGVVKEEISDDNARLPCFNGRVVSWLVSSDNPQPEMAPPVHEPRAELAPPAPPLPPLPPERTSGIGDSRPPSFHPNVSSSHENLEPETETESVVSLRRERPRRRDSSEHGAGGHRTGGPSRLERHLAGYESSSTLMTSELESTSLGDSDEEDTMSRFSSSTEQSSASRLLKRHRRRRKQRPPRLERTSSFSSVTDSTMSLNIITVTLNMEKYNFLGISIVGQSNERGDGGIYIGSIMKGGAVAADGRIEPGDMLLQVNDMNFENMSNDDAVRVLRDIVHKPGPIVLTVAKCWDPSPQAYFTLPRNEPIQPIDPAAWVSHSAALTGTFPAYPGSSSMSTITSGSSLPDGCEGRGLSVHTDMASVTKAMAAPESGLEVRDRMWLKITIPNAFLGSDVVDWLYHHVEGFPERREARKYASGLLKAGLIRHTVNKITFSEQCYYVFGDLSGGCESYLVNLSLNDNDGSSGASDQDTLAPLPGATPWPLLPTFSYQYPAPHPYSPQPPPYHELSSYTYGGGSASSQHSEGSRSSGSTRSDGGAGRTGRPEERAPESKSGSGSESEPSSRGGSLRRGGEASGTSDGGPPPSRGSTGGAPNLRAHPGLHPYGPPPGMALPYNPMMVVMMPPPPPPVPPAVQPPGAPPVRDLGSVPPELTASRQSFHMAMGNPSEFFVDVM
modifications: MYC tag

Experiments:
[1] = circular dichroism of synthetic TM peptides; type: physicochemical; settings: DDM detergent solution; lipophilic environment
Method: CD spectra were recorded using a J-810 spectropolarimeter (Jasco, Easton, MD, USA) in a 0.1 cm quartz cuvette. Far-UV CD spectra were collected over 190–260 nm. ITC measurements were carried out at 20 °C on an ITC (VP–ITC 200, MicroCal). 820 µM FZD6 TM5 and 165 µM FZD6 TM4 were dissolved in 0.5% DDM in water. 2 µl of TM5 peptide were injected into 260 µl TM4 during each titration. The ITC data were analyzed with the Origin 7.0 software.
Supplementary Figure 5: Circular dichroism (CD) and isothermal titration calorimetry (ITC) experiments for structural analysis of synthetic peptides resembling TM1, 4, 5 and mutant TM5 and of peptide-peptide interactions, related to Figure 3. Synthetic peptides (for sequence see Supplementary Fig. 9) resembling TM1 (a), 4 (b), 5 (c) and mutant TM5 (d) were used for CD experiments in triple distilled water with increasing DDM concentrations (0% DDM – black, 0.01% DDM – blue, 0.1% DDM – green and 0.5% DDM – red). (c)TM5 is unstructured in TDW and begins to gain structure at 0.1% DDM. It forms a clear α-helical structure in 0.5% DDM. The triple mutated TM5 (d) forms an α-helix in a much lower DDM concentration (0.01% DDM). […]

[2] = system: FZD6–FZD6 dimer; test: dcFRAP of V5-FZD6-mCherry/FZD6-GFP (FZD6 dimerization); type: cell-based, human; settings: HEK293; for dimerization by CL-induced decrease of mobile fraction: GFP-tagged mutant with wt V5-FZD6-mCherry, anti-V5/avidin crosslinking
Method: For dual color FRAP experiments, cells grown in four compartment 35 mm glass bottom dishes were washed three times with BE buffer[19] (150 mM NaCl, 2.5 mM KCl, 10 mM HEPES, 12 mM glucose, 0.5 mM CaCl2, and 0.5 mM MgCl2). Then, the cells were incubated at RT for 30 min with biotin-conjugated goat polyclonal anti-V5 antibody (Bethyl) diluted 1:100 in BE buffer supplemented with 2.5% bovine serum albumin. For antibody-mediated cross-linking, avidin was added and incubated for 15 min and washed two times with BE buffer before the experiments were performed. In Fig. 4, dcFRAP experiments are presented that employ chemical surface crosslinking to visualize assembly of FZD6 with DVL or heterotrimeric G proteins according to previously published protocols. Live cell imaging experiments were carried out using a Zeiss 710 laser scanning microscope. Images were acquired using a 40×, 1.2 NA C-Apochromat objective and the 488 nm and the 561 nm laser lines were used to excite GFP and mCherry fluorophores, respectively. Photobleaching was performed by 100% laser illumination of a 1.80 × 1.80 µm area placed over the cell plasma membrane. Fluorescence was measured pre- and post-bleach using low-intensity illumination for a total time period of 100 s. Average pixel intensity was measured using the ZEN2013 software, corrected for background fluctuations and bleaching artifacts and normalized to pre-bleached intensity. The recovered mobile fraction (F m) was calculated as follows: F m = (I P–I 0)/(I I–I 0), where I I is the initial intensity measured prior to bleaching, I 0 is the immediate fluorescence intensity post-bleaching and I P is intensity value post-bleaching. The mobile fraction was defined by the average of the fluorescence recovery assessed between time 85–101 s (including pre-bleach measurements). We excluded experiments in which the extracellularly tagged receptors were not sufficiently immobilized after the crosslinking procedure (cutoff at 40% crosslinking-induced reduction in mobile fraction). Kinetic determination of mobile fractions of crosslinked V5-FZD6-mCherry and FZD6-GFP with WNT stimulation over time were performed in one cell culture well. Measurements for each time point were performed on separate cells.
Statistical and graphical analysis was performed using Graph Pad Prism 5 software. Data were analyzed by two-tailed t-test or one-way ANOVA with Fisher’s least significant difference post hoc analysis. Curve fitting of FRAP data was done with a two-phase association nonlinear function using the least square fit. Data for receptor titration in the presence of C59 and output to P-ERK1/2 in Fig. 6h was fit to a linear regression model. All experiments were repeated at least three times in independent experiments (not representing technical replicates). For single cell analysis (dcFRAP), the number of the individual ROIs obtained from several cells in at least three independent experiments is provided in the figure legends. Data from individual ROIs are summarized for data presentation providing the sum of independent observations. Significance levels are given as: *P < 0.05; **P < 0.01; ***P < 0.001. Data in FRAP curves and bar graphs (FRAP) are presented as mean ± s.e.m.

Molecule	dimerization by CL-induced decrease of mobile fraction [2]	other results
KKKVWFHAVAWGTPGFLTVMLLAMNKKK [TM4, synthetic peptide of FZD6 transmembrane helix 4]		secondary structure in detergent (CD) [1]: structured and α-helical
B1	maintained the intrinsic ability of FZD6 to form dimers	
B2	exhibited a reduced ability to dimerize	
B3		effect of altered DVL level on FZD6 dimer formation ([2]; V5-FZD6-mCherry/FZD6-GFP, pan-DVL siRNA or overexpressed DVL2-MYC): Absence of a role for DVL and G proteins in FZD6 dimer formation
